According to article PMC10946326:

Experiments:
[1] = biological target: T1, MOZ WH1 (Homo sapiens, UniProt Q92794 2-86); test: NMR
T1 sequence: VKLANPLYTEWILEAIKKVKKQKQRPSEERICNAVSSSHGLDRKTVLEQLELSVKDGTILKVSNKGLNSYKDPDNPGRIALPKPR

[2] = biological target: MORF WH1;p300 TAZ2 (Homo sapiens;Homo sapiens?, UniProt Q8WYB5;Q09472 5-84;1722-1812, |); test: NMR
[3] = biological target: T2, MORF WH1 (Homo sapiens, UniProt Q8WYB5 5-84); test: EMSA
T2 sequence: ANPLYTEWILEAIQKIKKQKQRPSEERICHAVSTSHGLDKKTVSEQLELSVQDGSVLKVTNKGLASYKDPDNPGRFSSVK

Measured: binding result

Sequence of MORF WH1;p300 TAZ2 (Q09472 1722-1812, one chain of several): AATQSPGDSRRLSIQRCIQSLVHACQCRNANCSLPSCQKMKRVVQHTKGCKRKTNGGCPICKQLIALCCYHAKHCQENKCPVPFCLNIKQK

B1: CpG-DNA16 (dsDNA)
DNA 1: TAACCTGCGCACCATA
DNA 2: TATGGTGCGCAGGTTA
binds: all assays above
